Target: sSortilin, Q99523
Assay: SPR
Settings: modification not given

Chain of sSortilin, Q99523 (Q99523 78-755): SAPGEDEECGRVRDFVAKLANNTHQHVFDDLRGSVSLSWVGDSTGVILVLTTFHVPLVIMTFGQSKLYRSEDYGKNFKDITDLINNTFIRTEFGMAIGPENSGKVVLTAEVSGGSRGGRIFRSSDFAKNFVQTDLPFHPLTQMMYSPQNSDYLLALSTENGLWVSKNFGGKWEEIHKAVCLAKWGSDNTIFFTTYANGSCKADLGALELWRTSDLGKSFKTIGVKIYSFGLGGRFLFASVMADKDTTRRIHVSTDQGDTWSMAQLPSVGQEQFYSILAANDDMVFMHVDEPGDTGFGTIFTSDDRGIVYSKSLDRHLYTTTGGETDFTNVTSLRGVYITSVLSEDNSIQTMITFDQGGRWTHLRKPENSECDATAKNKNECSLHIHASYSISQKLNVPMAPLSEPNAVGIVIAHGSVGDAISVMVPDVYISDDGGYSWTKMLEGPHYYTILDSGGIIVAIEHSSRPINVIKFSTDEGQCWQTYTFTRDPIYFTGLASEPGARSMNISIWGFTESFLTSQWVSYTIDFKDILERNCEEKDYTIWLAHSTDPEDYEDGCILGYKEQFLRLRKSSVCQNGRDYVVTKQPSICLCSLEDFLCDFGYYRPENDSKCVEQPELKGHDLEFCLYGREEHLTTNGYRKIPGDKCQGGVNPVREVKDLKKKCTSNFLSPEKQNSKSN

- EC50: 460 nM
Binder: RRPYIL [NT8-13]

From patent US20110142830A1
